Drawing on patent publication US9957299B2, “Peptidomimetic macrocycles” (AILERON THERAPEUTICS, INC., priority 2010, dated 2018), this text covers helicity for 22 compounds.

Numbered stars: 1 amine (or outer) side, 2 acyl side, 3 side chain; on linkers, the order of the positions; unused ones are H or OH. Bridge positions count the residues as written; N and C are the ends. Square brackets hold non-standard residues; d marks the D form. Peptide text beside a SMILES is read from it. Trp(6-Cl) = N[C@@H](Cc1c[nH]c2cc(Cl)ccc12)C(=O)O; X3 = C=CCCCC(CCCC=C)(N[*:1])C(=O)[*:2]; R8 = C=CCCCCCC[C@@](C)(N)C(=O)O; S8 = C=CCCCCCC[C@](C)(N)C(=O)O; S5 = C=CCCC[C@](C)(N)C(=O)O; Nle = CCCC[C@H](N)C(=O)O; Ac3c = NC1(C(=O)O)CC1; Aib = CC(C)(N)C(=O)O

The data set can be described thus: circular dichroism. The conditions noted are these: aqueous, '0% TFE' (buffer not stated; general: 50 mM potassium phosphate pH 7 or water); pH ns; ns °C; 25-50 uM (general text).
Take `CC(=O)N[C@@H](CCC(N)=O)C(=O)N[C@@H](CO)C(=O)N[C@@]1(C)CCCCCCCCC2(CCCCCCCCCCC[C@@](C)(C(=O)N[C@@H](CCC(N)=O)C(=O)N[C@@H](CC(N)=O)C(N)=O)NC(=O)[C@H](CC(C)C)NC(=O)[C@H](CC(C)C)NC(=O)[C@H](CCCNC(=N)N)NC(=O)[C@H](Cc3c[nH]c4ccccc34)NC(=O)[C@H](CC(C)C)NC(=O)[C@H](CC(N)=O)NC2=O)NC(=O)[C@H](Cc2ccccc2)NC(=O)[C@H]([C@@H](C)O)NC(=O)[C@H](CCC(N)=O)NC1=O` (stereo partly shown): the helicity stood at 96%. For `C=CCCCCCC[C@@](C)(NC(=O)[C@H](Cc1ccccc1)NC(=O)[C@@H](NC(=O)[C@H](CCC(N)=O)NC(=O)[C@H](CCC(N)=O)NC(=O)[C@H](CO)NC(=O)[C@H](CCC(N)=O)NC(C)=O)[C@@H](C)O)C(=O)N[C@@H](CC(N)=O)C(=O)N[C@@H](CC(C)C)C(=O)N[C@@H](Cc1c[nH]c2ccccc12)C(=O)N[C@@H](CCCNC(=N)N)C(=O)N[C@@H](CC(C)C)C(=O)N[C@@H](CC(C)C)C(=O)N[C@@](C)(CCCC=C)C(=O)N[C@@H](CCC(N)=O)C(=O)N[C@@H](CC(N)=O)C(N)=O`, the helicity turned out to be 55%. For `CCCC[C@H](NC(C)=O)C(=O)N1CCC[C@H]1C(=O)N[C@@H](CCCNC(=N)N)C(=O)N[C@@H](Cc1ccccc1)C(=O)N[C@]1(C)CCCCCCC=CCCC[C@@](C)(C(=O)N[C@@H](CCC(N)=O)C(=O)N[C@@H](CC(N)=O)C(N)=O)NC(=O)[C@H](CC(C)C)NC(=O)[C@H](CC(C)C)NC(=O)[C@H](CCCNC(=N)N)NC(=O)[C@H](Cc2c[nH]c3ccccc23)NC(=O)[C@H](Cc2ccc(O)cc2)NC(=O)[C@H](CC(N)=O)NC1=O` (Ac-[Nle]PRF[R8]NYWRLL[S5]QN-NH2; staple 5-12), the helicity was determined as 62.6%. As for `CC(=O)N[C@@H](CCC(N)=O)C(=O)N[C@@H](CO)C(=O)N[C@@H](CCC(N)=O)C(=O)N[C@@H](CCC(N)=O)C(=O)N[C@H](C(=O)N[C@@H](Cc1ccccc1)C(=O)N[C@]1(C)CCCCCCCCCCC[C@@](C)(C(=O)N[C@@H](CCC(N)=O)C(=O)N[C@@H](CC(N)=O)C(N)=O)NC(=O)[C@H](CC(C)C)NC(=O)[C@H](CC(C)C)NC(=O)[C@H](CCCNC(=N)N)NC(=O)[C@](C)(Cc2c[nH]c3cc(Cl)ccc23)NC(=O)[C@H](CC(C)C)NC(=O)[C@H](CC(N)=O)NC1=O)[C@@H](C)O`, the helicity turned out to be 62.4%.

For the compound Ac-QTFEHWWSQLLS-NH2, the helicity was determined as 21.6%. Regarding `CC(=O)N[C@@H](C)C(=O)N[C@@H](C)C(=O)N[C@@H](C)C(=O)N[C@@H](CCCNC(=N)N)C(=O)N[C@@H](C)C(=O)N[C@@H](C)C(=O)N[C@]1(C)CCCCCCC=CCCC[C@@](C)(C(=O)N[C@@H](C)C(=O)N[C@@H](C)C(N)=O)NC(=O)[C@H](C)NC(=O)[C@H](C)NC(=O)[C@H](CCCNC(=N)N)NC(=O)[C@H](C)NC(=O)[C@H](C)NC(=O)[C@H](C)NC1=O` (Ac-AAARAA[R8]AAARAA[S5]AA-NH2; staple 7-14), the helicity came out at 131%.

With `CC(=O)N[C@@H](CCC(N)=O)C(=O)N[C@@H](CO)C(=O)N[C@]1(C)CCCC=CCCCC2(CCCC=CCCC[C@@](C)(C(=O)N[C@@H](CC(C)C)C(=O)N[C@@H](CC(C)C)C(=O)NC(C)(C)C(=O)N[C@@H](CCC(N)=O)C(=O)N[C@@H](CC(N)=O)C(N)=O)NC(=O)[C@H](Cc3c[nH]c4ccccc34)NC(=O)[C@H](CC(C)C)NC(=O)[C@H](CC(N)=O)NC2=O)NC(=O)[C@H](Cc2ccccc2)NC(=O)[C@H]([C@@H](C)O)NC(=O)[C@H](CCC(N)=O)NC1=O` (stereo partly shown), the helicity came to 0%. With `CC(=O)N[C@@H](CCC(N)=O)C(=O)N[C@@H](CO)C(=O)N[C@@H](CCC(N)=O)C(=O)N[C@@H](CCC(N)=O)C(=O)N[C@H](C(=O)N[C@@H](Cc1ccccc1)C(=O)N[C@@H]1CCCCCCC=CCCC[C@@H](C(=O)N[C@@H](CCC(N)=O)C(=O)N[C@@H](CC(N)=O)C(N)=O)NC(=O)[C@H](CC(C)C)NC(=O)[C@H](CC(C)C)NC(=O)[C@H](CCCNC(=N)N)NC(=O)[C@H](Cc2c[nH]c3ccccc23)NC(=O)[C@H](CC(C)C)NC(=O)[C@H](CC(N)=O)NC1=O)[C@@H](C)O` the figure was 50.5%; with `CCCC[C@@H]1NC(=O)[C@H](CCCNC(=N)N)NC(=O)[C@H](Cc2c[nH]c3ccccc23)NC(=O)[C@H](CC(C)C)NC(=O)[C@H](CC(N)=O)NC(=O)[C@](C)(NC(=O)[C@H](Cc2ccccc2)NC(=O)[C@@H](NC(=O)[C@H](CCC(N)=O)NC(=O)[C@H](CCC(N)=O)NC(=O)[C@H](CO)NC(=O)[C@H](CCC(N)=O)NC(C)=O)[C@@H](C)O)CCCCCCCCCCC[C@@](C)(C(=O)N[C@@H](CCC(N)=O)C(=O)N[C@@H](CC(N)=O)C(N)=O)NC(=O)[C@H](CC(C)C)NC1=O`, 84.7%; with Ac-QSQQTFSNLWRLLPQN-NH2, 5%.

As for `CC(=O)N[C@]1(C)CCCCCCCCCCC[C@@](C)(C(=O)N[C@@H](CC(C)C)C(=O)N[C@@H](Cc2c[nH]c3ccccc23)C(=O)N[C@@H](CCCNC(=N)N)C(=O)N[C@@H](CC(C)C)C(=O)N[C@@H](CC(C)C)C(=O)NC(C)(C)C(=O)N[C@@H](CCC(N)=O)C(=O)N[C@@H](CC(N)=O)C(N)=O)NC(=O)[C@H](CO)NC(=O)[C@H](Cc2ccccc2)NC(=O)[C@H]([C@@H](C)O)NC(=O)[C@H](CCC(N)=O)NC(=O)[C@H](CCC(N)=O)NC(=O)[C@H](CO)NC1=O`, the helicity was 66.7%. `CC(=O)N[C@@H](CC(C)C)C(=O)N[C@H](C(=O)N[C@@H](Cc1ccccc1)C(=O)N[C@]1(C)CCCCCCC=CCCC[C@@](C)(C(=O)N[C@@H](CO)C(=O)N[C@@H](C)C(N)=O)NC(=O)[C@H](CC(C)C)NC(=O)[C@H](CCC(N)=O)NC(=O)[C@H](C)NC(=O)[C@H](Cc2c[nH]c3ccccc23)NC(=O)[C@H](Cc2ccc(O)cc2)NC(=O)[C@H](Cc2c[nH]cn2)NC1=O)[C@@H](C)O`: the helicity was found to be 80.8%. As to `CC(=O)N[C@@H](CCC(N)=O)C(=O)N[C@@H](CO)C(=O)N[C@@H](CCC(N)=O)C(=O)N[C@@H](CCC(N)=O)C(=O)N[C@H](C(=O)N[C@@H](Cc1ccccc1)C(=O)N[C@]1(C)CCCCCCCCCCC[C@@](C)(C(=O)N[C@@H](CCC(N)=O)C(=O)N[C@@H](CC(N)=O)C(N)=O)NC(=O)[C@H](CC(C)C)NC(=O)[C@H](CC(C)C)NC(=O)[C@H](CCCNC(=N)N)NC(=O)[C@H](Cc2c[nH]c3cc(Cl)ccc23)NC(=O)[C@H](CC(C)C)NC(=O)[C@H](CC(N)=O)NC1=O)[C@@H](C)O`, the helicity is 92.4%.

Turning to `CCCC[C@H](NC(C)=O)C(=O)N1CCC[C@H]1C(=O)N[C@@H](CCCNC(=N)N)C(=O)N[C@@H](Cc1ccccc1)C(=O)N[C@]1(C)CCCCCCCCCCC[C@@](C)(C(=O)N[C@@H](CCC(N)=O)C(=O)N[C@@H](CC(N)=O)C(N)=O)NC(=O)[C@H](CC(C)C)NC(=O)[C@H](CC(C)C)NC(=O)[C@H](CCCNC(=N)N)NC(=O)[C@H](Cc2c[nH]c3ccccc23)NC(=O)[C@H](Cc2ccc(O)cc2)NC(=O)[C@H](CC(N)=O)NC1=O`, the helicity is 61.6%. With `CC(=O)N[C@@H](CC(C)C)C(=O)N[C@H](C(=O)N[C@@H](Cc1ccccc1)C(=O)N[C@]1(C)CCCCCCC=CCCC[C@@](C)(C(=O)N[C@@H](CO)C(N)=O)NC(=O)[C@H](CC(C)C)NC(=O)[C@H](CCC(N)=O)NC(=O)[C@H](CCCNC(=N)N)NC(=O)[C@H](Cc2c[nH]c3ccccc23)NC(=O)[C@H](Cc2ccc(O)cc2)NC(=O)[C@H](Cc2c[nH]cn2)NC1=O)[C@@H](C)O` (Ac-LTF[R8]HYWRQL[S5]S-NH2; staple 4-11) the figure was 59.5%; with `CC(=O)N[C@@H](CC(C)C)C(=O)N[C@H](C(=O)N[C@@H](Cc1ccccc1)C(=O)N[C@]1(C)CCCCCCCCCCC[C@@](C)(C(=O)N[C@@H](CO)C(=O)N[C@@H](C)C(N)=O)NC(=O)[C@H](CC(C)C)NC(=O)[C@H](CCC(N)=O)NC(=O)[C@H](C)NC(=O)[C@H](Cc2c[nH]c3ccccc23)NC(=O)[C@H](Cc2ccc(O)cc2)NC(=O)[C@H](Cc2c[nH]cn2)NC1=O)[C@@H](C)O`, 78.4%; with `CC(=O)N[C@H](C(=O)N[C@@H](CO)C(=O)N[C@@H](Cc1ccccc1)C(=O)N[C@]1(C)CCCCCCCCCCC[C@@](C)(C(=O)N2CCC[C@H]2C(N)=O)NC(=O)[C@H](CC(C)C)NC(=O)[C@H](CC(C)C)NC(=O)[C@H](CC(N)=O)NC(=O)[C@H](Cc2c[nH]c3ccccc23)NC(=O)[C@H](Cc2ccc(O)cc2)NC(=O)[C@H](CCC(N)=O)NC1=O)[C@@H](C)O`, 2.6%. Turning to `CC(=O)N[C@@H](CCCNC(=N)N)C(=O)N[C@@H](CO)C(=O)N[C@@H](CCC(N)=O)C(=O)N[C@@H](CCC(N)=O)C(=O)N[C@H](C(=O)N[C@@H](Cc1ccccc1)C(=O)N[C@]1(C)CCCCCCC=CCCC[C@@](C)(C(=O)N[C@@H](CCC(N)=O)C(=O)N[C@@H](CC(N)=O)C(N)=O)NC(=O)[C@H](CC(C)C)NC(=O)[C@H](CC(C)C)NC(=O)[C@H](CCCNC(=N)N)NC(=O)[C@H](Cc2c[nH]c3ccccc23)NC(=O)[C@H](CC(C)C)NC(=O)[C@H](CC(N)=O)NC1=O)[C@@H](C)O` (Ac-RSQQTF[R8]NLWRLL[S5]QN-NH2; staple 7-14), the helicity turned out to be 62.3%. The value for `CC(=O)N[C@@H](CCC(N)=O)C(=O)N[C@H](C(=O)N[C@@H](Cc1ccccc1)C(=O)N[C@]1(C)CCCCCCC=CCCC[C@@](C)(C(=O)N[C@@H](CO)C(N)=O)NC(=O)[C@H](CC(C)C)NC(=O)[C@H](CCC(N)=O)NC(=O)[C@H](CO)NC(=O)[C@H](Cc2c[nH]c3ccccc23)NC(=O)[C@H](Cc2c[nH]c3ccccc23)NC(=O)[C@H](Cc2c[nH]cn2)NC1=O)[C@@H](C)O` (Ac-QTF[R8]HWWSQL[S5]S-NH2; staple 4-11) was 21.6%. Turning to `CSCC[C@H](NC(=O)[C@H](Cc1ccccc1)NC(C)=O)C(=O)NC(C)(C)C(=O)N[C@@H](Cc1ccc(O)cc1)C(=O)N[C@@H](Cc1c[nH]c2cc(Cl)ccc12)C(=O)N[C@@H](CCC(=O)O)C(=O)NC1(C(=O)N[C@@H](CC(C)C)C(N)=O)CC1` (Ac-FM[Aib]Y[Trp(6-Cl)]E[Ac3c]L-NH2), the helicity was -3.6%. In the case of Ac-TSFAEYWNLLSP-NH2, the helicity came to 6.8%. Consider `C=CCCCCCC[C@](C)(NC(=O)[C@H](CC(C)C)NC(=O)[C@H](CC(C)C)NC(=O)[C@H](CCCNC(=N)N)NC(=O)[C@H](Cc1c[nH]c2ccccc12)NC(=O)[C@H](CC(C)C)NC(=O)[C@H](CC(N)=O)NC(=O)C(CCCC=C)(CCCC=C)NC(=O)[C@H](Cc1ccccc1)NC(=O)[C@@H](NC(=O)[C@H](CCC(N)=O)NC(=O)[C@](C)(CCCC=C)NC(=O)[C@H](CO)NC(=O)[C@H](CCC(N)=O)NC(C)=O)[C@@H](C)O)C(=O)N[C@@H](CCC(N)=O)C(=O)N[C@@H](CC(N)=O)C(N)=O` (Ac-QS[S5]QTF[X3]NLWRLL[S8]QN-NH2), for which the helicity is 99%.
